# Numbering of substitutions follows the chain as printed. Numbers in names are those of the source.
# T1: human FcγRIIaR extracellular domain, C-terminal His-tag (human, UniProt P12318 34-217)
# T1 construct: also called human FcγRIIa (type R); FcgRIIaR; not shown: His-tag added to the C-terminus
# T1 chain: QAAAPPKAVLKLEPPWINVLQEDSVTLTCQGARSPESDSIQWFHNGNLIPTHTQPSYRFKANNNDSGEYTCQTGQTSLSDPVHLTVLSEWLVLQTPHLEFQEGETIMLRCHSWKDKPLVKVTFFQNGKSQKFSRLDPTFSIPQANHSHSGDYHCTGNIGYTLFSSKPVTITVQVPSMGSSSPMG
# T2: human FcγRIIaH extracellular domain, C-terminal His-tag (human, UniProt P12318 34-217)
# T2 construct: also called human FcγRIIa (type H); FcgRIIaH; not shown: His-tag added to the C-terminus
# T2 sequence: T1 chain with R134H
# T3: human FcγRIIb extracellular domain, C-terminal His-tag (human, UniProt P31994 43-217)
# T3 construct: also called FcgRIIb; not shown: His-tag added to the C-terminus
# T3 sequence: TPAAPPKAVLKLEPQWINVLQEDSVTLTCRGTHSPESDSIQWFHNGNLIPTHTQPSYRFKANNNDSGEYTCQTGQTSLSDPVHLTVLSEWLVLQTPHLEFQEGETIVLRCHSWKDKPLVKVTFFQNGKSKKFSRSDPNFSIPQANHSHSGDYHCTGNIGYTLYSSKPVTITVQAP
# B1: MS1032LO19-SG1 (MS103240H795-SG1/M103202L1045-SK1) (antibody, human IgG1, kappa)
# heavy: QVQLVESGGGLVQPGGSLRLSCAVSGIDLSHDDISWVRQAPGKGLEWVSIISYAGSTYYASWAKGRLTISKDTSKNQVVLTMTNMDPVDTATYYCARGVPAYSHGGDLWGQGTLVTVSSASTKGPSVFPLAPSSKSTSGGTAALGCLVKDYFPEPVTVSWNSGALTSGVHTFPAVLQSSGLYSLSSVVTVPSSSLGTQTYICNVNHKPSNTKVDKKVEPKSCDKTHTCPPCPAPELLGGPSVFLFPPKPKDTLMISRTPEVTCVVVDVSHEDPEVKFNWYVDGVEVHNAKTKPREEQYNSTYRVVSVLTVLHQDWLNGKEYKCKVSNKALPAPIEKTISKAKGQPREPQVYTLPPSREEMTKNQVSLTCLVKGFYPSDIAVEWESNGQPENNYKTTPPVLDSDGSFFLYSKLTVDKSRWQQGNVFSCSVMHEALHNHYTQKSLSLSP
# light: DIVMTQSPATLSLSPGERATLSCTTSQSVYHENWLSWFQQKPGQPPKLLIYWASTLAYGVPSRFSGSGSGTDFTLTISSLQPEDAATYYCAGGYGGGRYAFGQGTKVEIKRTVAAPSVFIFPPSDEQLKSGTASVVCLLNNFYPREAKVQWKVDNALQSGNSQESVTEQDSKDSTYSLSSTLTLSKADYEKHKVYACEVTHQGLSSPVTKSFNRGEC
# B2: MS103240H795-TT21/M103202L1045-SK1 (antibody, human IgG1, kappa)
# heavy: QVQLVESGGGLVQPGGSLRLSCAVSGIDLSHDDISWVRQAPGKGLEWVSIISYAGSTYYASWAKGRLTISKDTSKNQVVLTMTNMDPVDTATYYCARGVPAYSHGGDLWGQGTLVTVSSASTKGPSVFPLAPSSKSTSGGTAALGCLVKDYFPEPVTVSWNSGALTSGVHTFPAVLQSSGLYSLSSVVTVPSSSLGTQTYICNVNHKPSNTKVDKKVEPKSCDKTHTCPPCPAPELLGGDSVFLFPPKPKDVLMISRTPEVTCVVVDVSHEDPEVKFNWYVDGVEVHNAKTKPREEQYNSTYRVVSVLPVLHRDWLNGKEYKCKVSNKALPKPIEKTISKAKGQPREPQVYTLPPSREEMTKNQVSLTCLVKGFYPSDIAVEWESNGQPENNYKTTPPVLDSDGSFFLYSKLTVKKSRWQQGNVFSCSVMHEALHNHYTQKSLSLSP
# light: B1 light
# notes: CH = SG1 with P238D/T250V/T307P/Q311R/A330K/D413K (EU numbering)
# B3: MS103240H795-MY009/M103202L1045-SK1 (antibody, human IgG1, kappa)
# heavy: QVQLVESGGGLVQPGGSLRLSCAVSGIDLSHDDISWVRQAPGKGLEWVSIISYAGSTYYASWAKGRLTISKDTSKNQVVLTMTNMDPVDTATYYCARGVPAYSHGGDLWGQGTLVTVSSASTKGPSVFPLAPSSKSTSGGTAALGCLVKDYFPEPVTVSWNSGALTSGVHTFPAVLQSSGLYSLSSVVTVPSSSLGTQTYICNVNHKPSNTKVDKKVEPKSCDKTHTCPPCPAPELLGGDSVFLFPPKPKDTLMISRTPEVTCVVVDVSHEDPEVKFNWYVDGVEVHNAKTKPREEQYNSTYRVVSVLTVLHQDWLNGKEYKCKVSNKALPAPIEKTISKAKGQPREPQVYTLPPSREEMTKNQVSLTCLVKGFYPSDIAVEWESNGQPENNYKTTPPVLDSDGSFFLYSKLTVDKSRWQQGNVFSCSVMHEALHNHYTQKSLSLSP
# light: B1 light
# notes: CH = SG1 with P238D (EU numbering)
# B4: MS103240H795-MY214/M103202L1045-SK1 (antibody, human IgG1, kappa)
# heavy: B2 heavy with R313Q, K332A, K415D
# light: B1 light
# notes: CH = SG1 with P238D/T250V/T307P (EU numbering)
# B5: MS103240H795-TT15/M103202L1045-SK1 (antibody, human IgG1, kappa)
# heavy: B2 heavy with L236Y, V266I, S269A, R313Q, K415D
# light: B1 light
# notes: CH = SG1 with L234Y/P238D/T250V/V264I/S267A/T307P/A330K (EU numbering)
# B6: MS103240H795-TT13/M103202L1045-SK1 (antibody, human IgG1, kappa)
# heavy: B2 heavy with V266I, S269A, R313Q, K415D
# light: B1 light
# notes: CH = SG1 with P238D/T250V/V264I/S267A/T307P/A330K (EU numbering)
# B7: MS103240H795-TT11/M103202L1045-SK1 (antibody, human IgG1, kappa)
# heavy: B2 heavy with L236Y, R313Q, K415D
# light: B1 light
# notes: CH = SG1 with L234Y/P238D/T250V/T307P/A330K (EU numbering)
# B8: MS103240H795-TT09/M103202L1045-SK1 (antibody, human IgG1, kappa)
# heavy: B2 heavy with V266I, R313Q, K415D
# light: B1 light
# notes: CH = SG1 with P238D/T250V/V264I/T307P/A330K (EU numbering)
# B9: MS103240H795-TT10/M103202L1045-SK1 (antibody, human IgG1, kappa)
# heavy: B2 heavy with S269A, R313Q, K415D
# light: B1 light
# notes: CH = SG1 with P238D/T250V/S267A/T307P/A330K (EU numbering)
# B10: MS103240H795-TT22/M103202L1045-SK1 (antibody, human IgG1, kappa)
# heavy: B2 heavy with V266I, P345R, K415D
# light: B1 light
# notes: CH = SG1 with P238D/T250V/V264I/T307P/Q311R/A330K/P343R (EU numbering)
# B11: MS103240H795-TT08/M103202L1045-SK1 (antibody, human IgG1, kappa)
# heavy: B2 heavy with R313Q, K415D
# light: B1 light
# notes: CH = SG1 with P238D/T250V/T307P/A330K (EU numbering)
# B12: MS103240H795-TT14/M103202L1045-SK1 (antibody, human IgG1, kappa)
# heavy: B2 heavy with L236Y, V266I, R313Q, K415D
# light: B1 light
# notes: CH = SG1 with L234Y/P238D/T250V/V264I/T307P/A330K (EU numbering)
# B13: MS103240H795-TT20/M103202L1045-SK1 (antibody, human IgG1, kappa)
# heavy: B2 heavy with P345R, K415D
# light: B1 light
# notes: CH = SG1 with P238D/T250V/T307P/Q311R/A330K/P343R (EU numbering)
# B14: MS103240H795-TT12/M103202L1045-SK1 (antibody, human IgG1, kappa)
# heavy: B2 heavy with L236Y, S269A, R313Q, K415D
# light: B1 light
# notes: CH = SG1 with L234Y/P238D/T250V/S267A/T307P/A330K (EU numbering)
# B15: MS103240H795-TT23/M103202L1045-SK1 (antibody, human IgG1, kappa)
# heavy: B2 heavy with V266I
# light: B1 light
# notes: CH = SG1 with P238D/T250V/V264I/T307P/Q311R/A330K/D413K (EU numbering)
# Target: T1, human FcγRIIaR extracellular domain, …
# Test: SPR (BIACORE), antibody captured, soluble FcgR as analyte, 25C
# Experimental: (§1) The kinetic analysis of interactions between these antibodies and FcγR was carried out using BIACORE® T200 or BIACORE® 4000 (GE Healthcare). HBS-EP+ (GE Healthcare) was used as the running buffer, and the measurement temperature was set to 25° C. A chip produced by immobilizing Protein A. Protein A/G or mouse anti-human IgG kappa light chain (BD Biosciences) onto a Series S Sensor Chip CM4 or CM5 (GE Healthcare) by the amine-coupling method was used. […] After the measurement, the antibody captured on the chip was washed off by allowing reaction with 10 mM glycine-HCl, pH1.5 and 25 mM NaOH so that the chip was regenerated and used repeatedly. The sensorgrams obtained as measurement results were analyzed by the 1:1 Langmuir binding model using the BIACORE® Evaluation Software to calculate the binding rate constant ka (L/mol/s) and dissociation rate constant kd (l/s), and the dissociation constant KD (mol/L) was calculated from these values. […] Regarding such interactions, KD values were calculated using the following 1:1 binding model described in BIACORE® T100 Software Handbook BR1006-48 Edition AE.
# (§2) Human FcγRIIb-enhanced Fc variants with anti-myostatin variable region were constructed and their affinity for human FcγRs was evaluated. […] In addition, substitutions (Q311R/D413K or […]) were also introduced. The variants were expressed using M103202L1045-SK1 as light chain and their affinity to human FcγRs was analyzed according to the method shown in Example 34.
row,Binder,Kd
1,B1,1.1 µM
2,B2,20 µM
3,B3,23 µM
4,B4,21 µM
5,B5,6.1 µM
6,B6,9.8 µM
7,B7,10 µM
8,B8,14 µM
9,B9,8.7 µM
10,B10,21 µM
11,B11,16 µM
12,B12,7.6 µM
13,B13,28 µM
14,B14,5 µM
15,B15,48 µM

# Target: T4, human FcγRIIIaV extracellular domain, C-terminal His-tag (human, UniProt P08637 17-208)
# T4 construct: also called FcgRIIIaV; not shown: His-tag added to the C-terminus
# Test: as above
# Experimental: as §1, §2
# T4 sequence (P08637 17-208 F176V): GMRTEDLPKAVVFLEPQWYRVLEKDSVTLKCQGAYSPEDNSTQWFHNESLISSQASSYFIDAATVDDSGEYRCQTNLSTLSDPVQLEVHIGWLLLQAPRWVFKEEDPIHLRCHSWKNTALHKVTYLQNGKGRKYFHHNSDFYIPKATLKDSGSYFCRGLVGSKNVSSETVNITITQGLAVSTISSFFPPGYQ
row,Binder,Kd
1,B1,0.81 µM
2,B2,85 µM
3,B3,220 µM
4,B4,150 µM
5,B5,130 µM
6,B6,140 µM
7,B7,170 µM
8,B8,170 µM
9,B9,790 µM
10,B10,72 µM
11,B11,96 µM
12,B12,150 µM
13,B13,84 µM
14,B14,130 µM
15,B15,450 µM

# Target: T2, human FcγRIIaH extracellular domain, …
# Test: as above
# Experimental: as §1, §2
row,Binder,Kd
1,B1,0.75 µM
2,B2,56 µM
3,B3,73 µM
4,B4,32 µM
5,B5,29 µM
6,B6,45 µM
7,B7,24 µM
8,B8,44 µM
9,B9,56 µM
10,B10,60 µM
11,B11,55 µM
12,B12,18 µM
13,B13,91 µM
14,B14,20 µM
15,B15,100 µM

# Target: T3, human FcγRIIb extracellular domain, …
# Test: as above
# Experimental: as §1, §2
row,Binder,Kd
1,B1,0.58 µM
2,B2,1.3 µM
3,B3,1.3 µM
4,B4,1 µM
5,B5,0.25 µM
6,B6,0.32 µM
7,B7,0.52 µM
8,B8,0.29 µM
9,B9,0.63 µM
10,B10,0.59 µM
11,B11,0.68 µM
12,B12,0.19 µM
13,B13,1.4 µM
14,B14,0.49 µM
15,B15,0.55 µM

# Target: T1, human FcγRIIaR extracellular domain, …
# Test: SPR; KD of SG1 divided by KD of variant;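 note: relative to parent M103205H795-SG1 carrying the SG1 human heavy chain constant region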
# Experimental: as §1, §2
row,Binder,KD fold (SG1 = 1)
1,B1,1 fold
2,B2,0.06 fold
3,B3,0.05 fold
4,B4,0.05 fold
5,B5,0.18 fold
6,B6,0.11 fold
7,B7,0.11 fold
8,B8,0.08 fold
9,B9,0.13 fold
10,B10,0.05 fold
11,B11,0.07 fold
12,B12,0.14 fold
13,B13,0.04 fold
14,B14,0.22 fold
15,B15,0.02 fold

# Target: T4, human FcγRIIIaV extracellular domain, …
# Test: SPR; KD of SG1 divided by KD of variant;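 note: relative to parent M103205H795-SG1 carrying the SG1 human heavy chain constant region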
# Experimental: as §1, §2
row,Binder,KD fold (SG1 = 1)
1,B1,1 fold
2,B2,0.01 fold
3,B3,0.004 fold
4,B4,0.005 fold
5,B5,0.006 fold
6,B6,0.006 fold
7,B7,0.005 fold
8,B8,0.005 fold
9,B9,0.001 fold
10,B10,0.011 fold
11,B11,0.008 fold
12,B12,0.005 fold
13,B13,0.01 fold
14,B14,0.006 fold
15,B15,0.002 fold

# Target: T2, human FcγRIIaH extracellular domain, …
# Test: SPR; KD of SG1 divided by KD of variant;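 note: relative to parent M103205H795-SG1 carrying the SG1 human heavy chain constant region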
# Experimental: as §1, §2
row,Binder,KD fold (SG1 = 1)
1,B1,1 fold
2,B2,0.013 fold
3,B3,0.01 fold
4,B4,0.023 fold
5,B5,0.026 fold
6,B6,0.017 fold
7,B7,0.031 fold
8,B8,0.017 fold
9,B9,0.013 fold
10,B10,0.013 fold
11,B11,0.014 fold
12,B12,0.042 fold
13,B13,0.008 fold
14,B14,0.038 fold
15,B15,0.007 fold

# Target: T3, human FcγRIIb extracellular domain, …
# Test: SPR; KD of SG1 divided by KD of variant;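 note: relative to parent M103205H795-SG1 carrying the SG1 human heavy chain constant region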
# Experimental: as §1, §2
row,Binder,KD fold (SG1 = 1)
1,B1,1 fold
2,B2,4.5 fold
3,B3,4.5 fold
4,B4,5.8 fold
5,B5,23.2 fold
6,B6,18.1 fold
7,B7,11.2 fold
8,B8,20 fold
9,B9,9.2 fold
10,B10,9.8 fold
11,B11,8.5 fold
12,B12,30.5 fold
13,B13,4.1 fold
14,B14,11.8 fold
15,B15,10.5 fold

# Source: US20200317768A1 (published 2020)
